Measured values as given in patent publication US20120301468A1, “ANTI-MN ANTIBODIES AND METHODS OF USING SAME” (BAYER HEALTHCARE LLC, priority 2005, published 2012).

Target: human MN protein, entire extra-cellular domain with a C-terminal histag, expressed in HKB-11 cells (human), Q16790
Experiment: SPR, BIAcore 3000, IgG captured by anti-human IgG Fc, MN as analyte, 1:1 Langmuir fit
Conditions: remark: other sources report otherwise

Kd: 1 nM
B1: 3a4 full-length human IgG1 (antibody, V domains shown)
VH: QVELVESGGGLVQPGGSLRLSCAASGFTFSDYSINWVRQAPGKGLEYVSNISYSGSSTYYADSVKGRFTISRDNSKNTLYLQMNSLRAEDTAVYYCARFKYSGGSDSWGQGTLVTVSS
VL: DIELTQPPSVSVAPGQTARISCSGDNLPDFYVHWYQQKPGQAPVLVISEDNKRPSGIPERFSGSNSGNTATLTISGTQAEDEADYYCSTYGYTYSYSVFGGGTKLTVL
